# Data reported in patent US20020034767.
# T1: peptide RRRAAAEASAAA
# T1 chain: RRRAAAEASAAA
# T2: peptide RRRAEASAA
# T2 chain: RRRAEASAA
# T3: peptide RRRASAAASAA containing a phosphoserine as the first serine
# T3 chain: RRRASAAASAA
# T4: peptide RRREEESEEE
# T4 chain: RRREEESEEE
# T5: peptide RRREEESGGG
# T5 chain: RRREEESGGG
# T6: rhodopsin in urea treated rod outer segments, P02699
# T6 chain: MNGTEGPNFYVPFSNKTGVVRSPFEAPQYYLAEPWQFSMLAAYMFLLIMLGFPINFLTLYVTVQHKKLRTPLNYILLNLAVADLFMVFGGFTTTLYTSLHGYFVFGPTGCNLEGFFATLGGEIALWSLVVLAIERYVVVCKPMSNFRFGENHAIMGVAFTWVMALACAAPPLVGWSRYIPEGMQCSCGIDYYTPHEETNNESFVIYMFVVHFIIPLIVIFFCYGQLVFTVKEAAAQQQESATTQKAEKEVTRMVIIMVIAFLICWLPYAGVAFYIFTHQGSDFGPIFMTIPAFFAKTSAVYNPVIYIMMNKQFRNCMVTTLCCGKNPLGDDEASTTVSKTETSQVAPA
# B1: G protein-coupled receptor kinase GRK6 (human) (protein)
# chain: MELENIVANTVLLKAREGGGGNRKGKSKKWRQMLQFPHISQCEELRLSLERDYHSLCERHAIGRLLFREFCATRPELSRCVAFLDGVAEYEVTPDDKRKACGRHVTQNFLSHTGPDLIPEVPRQLVTNCTQRLEQGPCKDLFQELTRLTHEYLSVAPFADYLDSIYFNRFLQWKWLERQPVTKNTFRQYRVLGKGGFGEVCACQVRATGKMYACKKLEKKRIKKRKGEAMALNEKQILEKVNSRFVVSLAYAYETKDALCLVLTLMNGGDLKFHIYHMGQAGFPEARAVFYAAEICCGLEDLHRERIVYRDLKPENILLDDHGHIRISDLGLAVHVPEGQTIKGRVGTVGYMAPEVVKNERYTFSPDWWALGCLLYEMIAGQSPFQQRKKKIKREEVERLVKEVPEEYSERFSPQARSLCSQLLCKDPAERLGCRGGSAREVKEHPLFKKLNFKRLGAGMLEPPFKPDPQAIYCKDVLDIEQFSYVKGVELEPTDQDFYQKFATGSVPIPWQNEMVETECFQELNVFGLDGSVPPDLDWKGQPPAPPKKGLLQRLFSRQDCCGNCSDSEEELPTRL
# Legend:
# [1] = biological target: m2 muscarinic cholinergic receptor
# peptide RRRAAAEASAAA = biological target: T1, peptide RRRAAAEASAAA
# peptide RRRAEASAA = biological target: T2, peptide RRRAEASAA
# [2] = biological target: T3, peptide RRRASAAASAA containing a …
# peptide RRREEESEEE = biological target: T4, peptide RRREEESEEE
# peptide RRREEESGGG = biological target: T5, peptide RRREEESGGG
# [3] = biological target: polylysine, a 14-16 amino acid peptide
# [4] = biological target: T6, rhodopsin in urea treated rod outer …
protein,measurement,setting,value
B1,kinase activation by G protein βγ subunits,G protein βγ subunits,it is not activated by G protein βγ subunits
same,protein substrate phosphorylation,casein,GRK6 was able to phosphorylate the acidic proteins casein and phosvitin
same,protein substrate phosphorylation,histones,it was only weakly reactive toward the basic protein substrate histones
same,stimulus dependent receptor phosphorylation,[1],"GRK6 is also able to phosphorylate rhodopsin, β2-adrenergic and m2 muscarinic cholinergic receptors in a stimulus dependent manner, albeit to a significantly lower extent than βARK and GRK5"
same,peptide phosphorylation,peptide RRRAAAEASAAA,but not with the RRRAAAEASAAA (SEQ ID NO: 11) peptide
same,peptide phosphorylation,peptide RRRAEASAA,GRK6 activity was also apparent with the RRRAEASAA (SEQ ID NO: 10) peptide
same,peptide phosphorylation,[2],the same peptide containing a phosphoserine as the first serine is not phosphorylated by GRK6
same,peptide phosphorylation,peptide RRREEESEEE,poorly phosphorylated by GRK6
same,peptide phosphorylation,peptide RRREEESGGG,poorly phosphorylated by GRK6
same,protein substrate phosphorylation,phosvitin,GRK6 was able to phosphorylate the acidic proteins casein and phosvitin
same,fold increase in phosphorylation of rhodopsin,[3],an ˜2.7-fold increase in phosphorylation (optimal range 1 to 10 µM)
same,rhodopsin phosphorylation activity relative to βARK virus infected supernatant,[4],4.7% +/-0.4% that of the βARK virus infected supernatant
same,stimulus dependent receptor phosphorylation,β2-adrenergic receptor,"GRK6 is also able to phosphorylate rhodopsin, β2-adrenergic and m2 muscarinic cholinergic receptors in a stimulus dependent manner, albeit to a significantly lower extent than βARK and GRK5"
